From patent US12679878B2, “CRF2 receptor agonists and their use in therapy” (SANOFI, priority 2020, dated 2026)
Starred links: 1 amine or outer side, 2 acyl side, 3 side chain; linkers in the order of their positions; H or OH if unused. Non-standard residues stand in square brackets, D forms with d. Groups on a side chain read outwards from the residue. No end group written: not given here. *: point of attachment. C18 diacid = O=C(O)CCCCCCCCCCCCCCCCC(=O)*; γGlu = O=C(O)[C@H](CCC(=O)[*:2])N[*:1]; AEEA = NCCOCCOCC(=O)O; Aib = CC(C)(N)C(=O)O

The binders below were run against human corticotropin-releasing factor 2α (CRF2 α receptor) (human), Q13324 (assay: cell-based or functional assay).
human corticotropin-releasing factor 2α (CRF2 α receptor) (human), Q13324, sequence (Q13324 20-411): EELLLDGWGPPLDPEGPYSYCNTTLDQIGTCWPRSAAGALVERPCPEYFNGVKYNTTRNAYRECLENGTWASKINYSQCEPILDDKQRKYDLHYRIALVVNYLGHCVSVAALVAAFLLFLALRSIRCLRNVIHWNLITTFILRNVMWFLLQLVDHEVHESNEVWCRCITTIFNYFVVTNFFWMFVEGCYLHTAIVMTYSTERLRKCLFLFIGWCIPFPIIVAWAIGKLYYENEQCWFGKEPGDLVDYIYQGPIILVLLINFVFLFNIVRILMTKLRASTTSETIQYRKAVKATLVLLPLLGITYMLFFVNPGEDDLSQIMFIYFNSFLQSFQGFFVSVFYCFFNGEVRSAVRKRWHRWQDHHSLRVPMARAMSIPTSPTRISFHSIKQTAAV

EC50 [nM], 0% HSA | EC50 [nM], 0.1% HSA | Binder
0.41 nM | 15.3 nM | IVLSLDVPIKLK([AEEA-AEEA-γGlu-C18 diacid])QILLEQERQK[Aib]QRQQAETNKQILAQV-NH2 (N-terminus assumed; SMILES CC[C@H](C)[C@H](N)C(=O)N[C@H](C(=O)N[C@@H](CC(C)C)C(=O)N[C@@H](CO)C(=O)N[C@@H](CC(C)C)C(=O)N[C@@H](CC(=O)O)C(=O)N[C@H](C(=O)N1CCC[C@H]1C(=O)N[C@H](C(=O)N[C@@H](CCCCN)C(=O)N[C@@H](CC(C)C)C(=O)N[C@@H](CCCCNC(=O)COCCOCCNC(=O)COCCOCCNC(=O)CC[C@H](NC(=O)CCCCCCCCCCCCCCCCC(=O)O)C(=O)O)C(=O)N[C@@H](CCC(N)=O)C(=O)N[C@H](C(=O)N[C@@H](CC(C)C)C(=O)N[C@@H](CC(C)C)C(=O)N[C@@H](CCC(=O)O)C(=O)N[C@@H](CCC(N)=O)C(=O)N[C@@H](CCC(=O)O)C(=O)N[C@@H](CCCNC(=N)N)C(=O)N[C@@H](CCC(N)=O)C(=O)N[C@@H](CCCCN)C(=O)NC(C)(C)C(=O)N[C@@H](CCC(N)=O)C(=O)N[C@@H](CCCNC(=N)N)C(=O)N[C@@H](CCC(N)=O)C(=O)N[C@@H](CCC(N)=O)C(=O)N[C@@H](C)C(=O)N[C@@H](CCC(=O)O)C(=O)N[C@H](C(=O)N[C@@H](CC(N)=O)C(=O)N[C@@H](CCCCN)C(=O)N[C@@H](CCC(N)=O)C(=O)N[C@H](C(=O)N[C@@H](CC(C)C)C(=O)N[C@@H](C)C(=O)N[C@@H](CCC(N)=O)C(=O)N[C@H](C(N)=O)C(C)C)[C@@H](C)CC)[C@@H](C)O)[C@@H](C)CC)[C@@H](C)CC)C(C)C)C(C)C) [SEQ ID NO: 105]
0.84 nM | – | IVLSLDVPIKLK([AEEA-AEEA-γGlu-C18 diacid])QILLEQERQK[Aib]QREQAETNKQILAQV-NH2 (N-terminus assumed; SMILES CC[C@H](C)[C@H](N)C(=O)N[C@H](C(=O)N[C@@H](CC(C)C)C(=O)N[C@@H](CO)C(=O)N[C@@H](CC(C)C)C(=O)N[C@@H](CC(=O)O)C(=O)N[C@H](C(=O)N1CCC[C@H]1C(=O)N[C@H](C(=O)N[C@@H](CCCCN)C(=O)N[C@@H](CC(C)C)C(=O)N[C@@H](CCCCNC(=O)COCCOCCNC(=O)COCCOCCNC(=O)CC[C@H](NC(=O)CCCCCCCCCCCCCCCCC(=O)O)C(=O)O)C(=O)N[C@@H](CCC(N)=O)C(=O)N[C@H](C(=O)N[C@@H](CC(C)C)C(=O)N[C@@H](CC(C)C)C(=O)N[C@@H](CCC(=O)O)C(=O)N[C@@H](CCC(N)=O)C(=O)N[C@@H](CCC(=O)O)C(=O)N[C@@H](CCCNC(=N)N)C(=O)N[C@@H](CCC(N)=O)C(=O)N[C@@H](CCCCN)C(=O)NC(C)(C)C(=O)N[C@@H](CCC(N)=O)C(=O)N[C@@H](CCCNC(=N)N)C(=O)N[C@@H](CCC(=O)O)C(=O)N[C@@H](CCC(N)=O)C(=O)N[C@@H](C)C(=O)N[C@@H](CCC(=O)O)C(=O)N[C@H](C(=O)N[C@@H](CC(N)=O)C(=O)N[C@@H](CCCCN)C(=O)N[C@@H](CCC(N)=O)C(=O)N[C@H](C(=O)N[C@@H](CC(C)C)C(=O)N[C@@H](C)C(=O)N[C@@H](CCC(N)=O)C(=O)N[C@H](C(N)=O)C(C)C)[C@@H](C)CC)[C@@H](C)O)[C@@H](C)CC)[C@@H](C)CC)C(C)C)C(C)C) [SEQ ID NO: 103]
0.07 nM | – | IVLSLD[dV]PIKLK([AEEA-AEEA-γGlu-C18 diacid])QILLKQERQKKQREQAETNKQILAQV-NH2 (N-terminus assumed; SMILES CC[C@H](C)[C@H](N)C(=O)N[C@H](C(=O)N[C@@H](CC(C)C)C(=O)N[C@@H](CO)C(=O)N[C@@H](CC(C)C)C(=O)N[C@@H](CC(=O)O)C(=O)N[C@@H](C(=O)N1CCC[C@H]1C(=O)N[C@H](C(=O)N[C@@H](CCCCN)C(=O)N[C@@H](CC(C)C)C(=O)N[C@@H](CCCCNC(=O)COCCOCCNC(=O)COCCOCCNC(=O)CC[C@H](NC(=O)CCCCCCCCCCCCCCCCC(=O)O)C(=O)O)C(=O)N[C@@H](CCC(N)=O)C(=O)N[C@H](C(=O)N[C@@H](CC(C)C)C(=O)N[C@@H](CC(C)C)C(=O)N[C@@H](CCCCN)C(=O)N[C@@H](CCC(N)=O)C(=O)N[C@@H](CCC(=O)O)C(=O)N[C@@H](CCCNC(=N)N)C(=O)N[C@@H](CCC(N)=O)C(=O)N[C@@H](CCCCN)C(=O)N[C@@H](CCCCN)C(=O)N[C@@H](CCC(N)=O)C(=O)N[C@@H](CCCNC(=N)N)C(=O)N[C@@H](CCC(=O)O)C(=O)N[C@@H](CCC(N)=O)C(=O)N[C@@H](C)C(=O)N[C@@H](CCC(=O)O)C(=O)N[C@H](C(=O)N[C@@H](CC(N)=O)C(=O)N[C@@H](CCCCN)C(=O)N[C@@H](CCC(N)=O)C(=O)N[C@H](C(=O)N[C@@H](CC(C)C)C(=O)N[C@@H](C)C(=O)N[C@@H](CCC(N)=O)C(=O)N[C@H](C(N)=O)C(C)C)[C@@H](C)CC)[C@@H](C)O)[C@@H](C)CC)[C@@H](C)CC)C(C)C)C(C)C) [SEQ ID NO: 102]
0.32 nM | – | IVLSLDVPIKLK([AEEA-AEEA-γGlu-C18 diacid])QILLKQERQK[Aib]QREQAETNKQILAQV-NH2 (N-terminus assumed; SMILES CC[C@H](C)[C@H](N)C(=O)N[C@H](C(=O)N[C@@H](CC(C)C)C(=O)N[C@@H](CO)C(=O)N[C@@H](CC(C)C)C(=O)N[C@@H](CC(=O)O)C(=O)N[C@H](C(=O)N1CCC[C@H]1C(=O)N[C@H](C(=O)N[C@@H](CCCCN)C(=O)N[C@@H](CC(C)C)C(=O)N[C@@H](CCCCNC(=O)COCCOCCNC(=O)COCCOCCNC(=O)CC[C@H](NC(=O)CCCCCCCCCCCCCCCCC(=O)O)C(=O)O)C(=O)N[C@@H](CCC(N)=O)C(=O)N[C@H](C(=O)N[C@@H](CC(C)C)C(=O)N[C@@H](CC(C)C)C(=O)N[C@@H](CCCCN)C(=O)N[C@@H](CCC(N)=O)C(=O)N[C@@H](CCC(=O)O)C(=O)N[C@@H](CCCNC(=N)N)C(=O)N[C@@H](CCC(N)=O)C(=O)N[C@@H](CCCCN)C(=O)NC(C)(C)C(=O)N[C@@H](CCC(N)=O)C(=O)N[C@@H](CCCNC(=N)N)C(=O)N[C@@H](CCC(=O)O)C(=O)N[C@@H](CCC(N)=O)C(=O)N[C@@H](C)C(=O)N[C@@H](CCC(=O)O)C(=O)N[C@H](C(=O)N[C@@H](CC(N)=O)C(=O)N[C@@H](CCCCN)C(=O)N[C@@H](CCC(N)=O)C(=O)N[C@H](C(=O)N[C@@H](CC(C)C)C(=O)N[C@@H](C)C(=O)N[C@@H](CCC(N)=O)C(=O)N[C@H](C(N)=O)C(C)C)[C@@H](C)CC)[C@@H](C)O)[C@@H](C)CC)[C@@H](C)CC)C(C)C)C(C)C) [SEQ ID NO: 104]
0.53 nM | 13.2 nM | IVLSLDVPIKLK([AEEA-AEEA-γGlu-C18 diacid])QILLEQERQK[Aib]QREQAETNKQILERV-NH2 (N-terminus assumed; SMILES CC[C@H](C)[C@H](N)C(=O)N[C@H](C(=O)N[C@@H](CC(C)C)C(=O)N[C@@H](CO)C(=O)N[C@@H](CC(C)C)C(=O)N[C@@H](CC(=O)O)C(=O)N[C@H](C(=O)N1CCC[C@H]1C(=O)N[C@H](C(=O)N[C@@H](CCCCN)C(=O)N[C@@H](CC(C)C)C(=O)N[C@@H](CCCCNC(=O)COCCOCCNC(=O)COCCOCCNC(=O)CC[C@H](NC(=O)CCCCCCCCCCCCCCCCC(=O)O)C(=O)O)C(=O)N[C@@H](CCC(N)=O)C(=O)N[C@H](C(=O)N[C@@H](CC(C)C)C(=O)N[C@@H](CC(C)C)C(=O)N[C@@H](CCC(=O)O)C(=O)N[C@@H](CCC(N)=O)C(=O)N[C@@H](CCC(=O)O)C(=O)N[C@@H](CCCNC(=N)N)C(=O)N[C@@H](CCC(N)=O)C(=O)N[C@@H](CCCCN)C(=O)NC(C)(C)C(=O)N[C@@H](CCC(N)=O)C(=O)N[C@@H](CCCNC(=N)N)C(=O)N[C@@H](CCC(=O)O)C(=O)N[C@@H](CCC(N)=O)C(=O)N[C@@H](C)C(=O)N[C@@H](CCC(=O)O)C(=O)N[C@H](C(=O)N[C@@H](CC(N)=O)C(=O)N[C@@H](CCCCN)C(=O)N[C@@H](CCC(N)=O)C(=O)N[C@H](C(=O)N[C@@H](CC(C)C)C(=O)N[C@@H](CCC(=O)O)C(=O)N[C@@H](CCCNC(=N)N)C(=O)N[C@H](C(N)=O)C(C)C)[C@@H](C)CC)[C@@H](C)O)[C@@H](C)CC)[C@@H](C)CC)C(C)C)C(C)C) [SEQ ID NO: 106]
0.81 nM | 16.1 nM | IVLSLDVPIKLK([AEEA-AEEA-γGlu-C18 diacid])QILLKQERQK[Aib]QREQAETNKQILERV-NH2 (N-terminus assumed; SMILES CC[C@H](C)[C@H](N)C(=O)N[C@H](C(=O)N[C@@H](CC(C)C)C(=O)N[C@@H](CO)C(=O)N[C@@H](CC(C)C)C(=O)N[C@@H](CC(=O)O)C(=O)N[C@H](C(=O)N1CCC[C@H]1C(=O)N[C@H](C(=O)N[C@@H](CCCCN)C(=O)N[C@@H](CC(C)C)C(=O)N[C@@H](CCCCNC(=O)COCCOCCNC(=O)COCCOCCNC(=O)CC[C@H](NC(=O)CCCCCCCCCCCCCCCCC(=O)O)C(=O)O)C(=O)N[C@@H](CCC(N)=O)C(=O)N[C@H](C(=O)N[C@@H](CC(C)C)C(=O)N[C@@H](CC(C)C)C(=O)N[C@@H](CCCCN)C(=O)N[C@@H](CCC(N)=O)C(=O)N[C@@H](CCC(=O)O)C(=O)N[C@@H](CCCNC(=N)N)C(=O)N[C@@H](CCC(N)=O)C(=O)N[C@@H](CCCCN)C(=O)NC(C)(C)C(=O)N[C@@H](CCC(N)=O)C(=O)N[C@@H](CCCNC(=N)N)C(=O)N[C@@H](CCC(=O)O)C(=O)N[C@@H](CCC(N)=O)C(=O)N[C@@H](C)C(=O)N[C@@H](CCC(=O)O)C(=O)N[C@H](C(=O)N[C@@H](CC(N)=O)C(=O)N[C@@H](CCCCN)C(=O)N[C@@H](CCC(N)=O)C(=O)N[C@H](C(=O)N[C@@H](CC(C)C)C(=O)N[C@@H](CCC(=O)O)C(=O)N[C@@H](CCCNC(=N)N)C(=O)N[C@H](C(N)=O)C(C)C)[C@@H](C)CC)[C@@H](C)O)[C@@H](C)CC)[C@@H](C)CC)C(C)C)C(C)C) [SEQ ID NO: 107]
